Numbered stars: 1 amine (or outer) side, 2 acyl side, 3 side chain; on linkers, the order of the positions; unused ones are H or OH. Square brackets hold non-standard residues; d marks the D form. Ends that are not written are not given here. γGlu = O=C(O)[C@H](CCC(=O)[*:2])N[*:1]
Target: T1, feline calcium-sensing receptor (fCaSR) from Felis catus, full length, expressed in HEK T-Rex/natClytin cells … (Felis catus)
T1 chain: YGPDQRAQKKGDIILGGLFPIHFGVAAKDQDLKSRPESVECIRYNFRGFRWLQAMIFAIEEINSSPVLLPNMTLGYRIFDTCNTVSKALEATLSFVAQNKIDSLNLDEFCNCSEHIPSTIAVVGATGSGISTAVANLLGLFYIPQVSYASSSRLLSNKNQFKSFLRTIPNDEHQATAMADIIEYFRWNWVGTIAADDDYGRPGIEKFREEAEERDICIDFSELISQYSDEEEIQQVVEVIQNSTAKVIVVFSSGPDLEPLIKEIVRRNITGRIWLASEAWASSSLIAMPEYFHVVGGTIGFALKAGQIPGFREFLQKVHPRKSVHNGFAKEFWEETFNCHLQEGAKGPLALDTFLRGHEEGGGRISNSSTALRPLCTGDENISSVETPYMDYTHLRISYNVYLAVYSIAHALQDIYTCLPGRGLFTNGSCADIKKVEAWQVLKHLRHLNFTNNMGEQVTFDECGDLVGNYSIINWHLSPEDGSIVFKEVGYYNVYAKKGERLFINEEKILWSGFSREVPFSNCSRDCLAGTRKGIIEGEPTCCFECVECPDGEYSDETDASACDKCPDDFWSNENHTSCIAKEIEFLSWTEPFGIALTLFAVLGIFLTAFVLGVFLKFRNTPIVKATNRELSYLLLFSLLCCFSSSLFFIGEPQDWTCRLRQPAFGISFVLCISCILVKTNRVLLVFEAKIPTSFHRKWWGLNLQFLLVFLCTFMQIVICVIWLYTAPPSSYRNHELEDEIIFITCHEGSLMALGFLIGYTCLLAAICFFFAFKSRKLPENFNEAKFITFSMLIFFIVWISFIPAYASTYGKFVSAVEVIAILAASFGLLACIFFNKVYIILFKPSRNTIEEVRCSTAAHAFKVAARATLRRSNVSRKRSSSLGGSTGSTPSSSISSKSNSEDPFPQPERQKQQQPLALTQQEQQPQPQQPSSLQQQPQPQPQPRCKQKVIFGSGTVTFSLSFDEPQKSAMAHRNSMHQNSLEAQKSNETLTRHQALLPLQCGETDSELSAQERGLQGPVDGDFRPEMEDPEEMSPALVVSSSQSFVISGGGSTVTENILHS
Assay: cell-based or functional assay

Agonist EC50: 8.2 mM
Binder: [γGlu]-Cys-Gly (also: γ-glutamyl peptide bond between Glu side chain and Cys) [L-Glutathione (γ-Glu-Cys-Gly)]

Source: patent publication US20190324031A1 (MARS, published 2019)
